Data published in publication PMC2808332, “Expanding the Substantial Interactome of NEMO Using Protein Microarrays” (PLoS ONE, 2010).

B1: Myosin light chain 5, regulatory (natural protein, human, UniProt Q02045-1 1-173, looked up)
chain: MASRKTKKKEGGALRAQRASSNVFSNFEQTQIQEFKEAFTLMDQNRDGFIDKEDLKDTYASLGKTNVKDDELDAMLKEASGPINFTMFLNLFGEKLSGTDAEETILNAFKMLDPDGKGKINKEYIKRLLMSQADKMTAEEVDQMFQFASIDVAGNLDYKALSYVITHGEEKEE
notes: Myosin light chain 5, regulatory, human; also called MYL5; source: insect cell/baculovirus, purified, spotted (Invitrogen Protoarray v4.0)
B2: Chromosome 9 open reading frame 32 (natural protein, human, UniProt Q9BV86 1-223, looked up)
chain: MTSEVIEDEKQFYSKAKTYWKQIPPTVDGMLGGYGHISSIDINSSRKFLQRFLREGPNKTGTSCALDCGAGIGRITKRLLLPLFREVDMVDITEDFLVQAKTYLGEEGKRVRNYFCCGLQDFTPEPDSYDVIWIQWVIGHLTDQHLAEFLRRCKGSLRPNGIIVIKDNMAQEGVILDDVDSSVCRDLDVVRRIICSAGLSLLAEERQENLPDEIYHVYSFALR
notes: Chromosome 9 open reading frame 32, human; also called C9ORF32; source: insect cell/baculovirus, purified, spotted (Invitrogen Protoarray v4.0)
B3: G protein, γ-transducing activity polypeptide 1 (natural protein, human, UniProt P63211 1-74, looked up)
chain: MPVINIEDLTEKDKLKMEVDQLKKEVTLERMLVSKCCEEVRDYVEERSGEDPLVKGIPEDKNPFKELKGGCVIS
notes: G protein, γ-transducing activity polypeptide 1, human; also called GNGT1; source: insect cell/baculovirus, purified, spotted (Invitrogen Protoarray v4.0)
B4: Family with sequence similarity 128, member A (natural protein, human, UniProt Q6P582 1-158, looked up)
chain: MAAQGVGPGPGSAAPPGLEAARQKLALRRKKVLSTEEMELYELAQAAGGGIDPDVFKILVDLLKLNVAPLAVFQMLKSMCAGQRLASEPQDPAAVSLPTSSVPETRGRDKGSAALGGVLALAERSNHEGSSQRMPRQPSATRLPKGGGPGKSPTQGST
notes: also called FAM128A; source: insect cell/baculovirus, purified, spotted (Invitrogen Protoarray v4.0)
B5: TBC1 domain family, member 7 (natural protein, human, UniProt Q9P0N9-1 1-293, looked up)
chain: MTEDSQRNFRSVYYEKVGFRGVEEKKSLEILLKDDRLDTEKLCTFSQRFPLPSMYRALVWKVLLGILPPHHESHAKVMMYRKEQYLDVLHALKVVRFVSDATPQAEVYLRMYQLESGKLPRSPSFPLEPDDEVFLAIAKAMEEMVEDSVDCYWITRRFVNQLNTKYRDSLPQLPKAFEQYLNLEDGRLLTHLRMCSAAPKLPYDLWFKRCFAGCLPESSLQRVWDKVVSGSCKILVFVAVEILLTFKIKVMALNSAEKITKFLENIPQDSSDAIVSKAIDLWHKHCGTPVHSS
notes: TBC1 domain family, member 7, human; also called TBC1D7; source: insect cell/baculovirus, purified, spotted (Invitrogen Protoarray v4.0)
B6: DnaJ (Hsp40) homolog, subfamily C, member 8 (natural protein, human, UniProt O75937 1-253, looked up)
chain: MAASGESGTSGGGGSTEEAFMTFYSEVKQIEKRDSVLTSKNQIERLTRPGSSYFNLNPFEVLQIDPEVTDEEIKKRFRQLSILVHPDKNQDDADRAQKAFEAVDKAYKLLLDQEQKKRALDVIQAGKEYVEHTVKERKKQLKKEGKPTIVEEDDPELFKQAVYKQTMKLFAELEIKRKEREAKEMHERKRQREEEIEAQEKAKREREWQKNFEESRDGRVDSWRNFQANTKGKKEKKNRTFLRPPKVKMEQRE
notes: DnaJ (Hsp40) homolog, subfamily C, member 8, human; also called DNAJC8; source: insect cell/baculovirus, purified, spotted (Invitrogen Protoarray v4.0)
B7: CUE domain containing 1 (natural protein, human, UniProt Q9NWM3 1-386, looked up)
chain: MTSLFRRSSSGSGGGGTAGARGGGGGTAAPQELNNSRPARQVRRLEFNQAMDDFKTMFPNMDYDIIECVLRANSGAVDATIDQLLQMNLEGGGSSGGVYEDSSDSEDSIPPEILERTLEPDSSDEEPPPVYSPPAYHMHVFDRPYPLAPPTPPPRIDALGSGAPTSQRRYRNWNPPLLGNLPDDFLRILPQQLDSIQGNAGGPKPGSGEGCPPAMAGPGPGDQESRWKQYLEDERIALFLQNEEFMKELQRNRDFLLALERDRLKYESQKSKSSSVAVGNDFGFSSPVPGTGDANPAVSEDALFRDKLKHMGKSTRRKLFELARAFSEKTKMRKSKRKHLLKHQSLGAAASTANLLDDVEGHACDEDFRGRRQEAPKVEEGLREGQ
notes: CUE domain containing 1, human; also called CUEDC1; source: insect cell/baculovirus, purified, spotted (Invitrogen Protoarray v4.0)
B8: Adenine phosphoribosyltransferase (natural protein, human, UniProt P07741-1 1-180, looked up)
chain: MADSELQLVEQRIRSFPDFPTPGVVFRDISPVLKDPASFRAAIGLLARHLKATHGGRIDYIAGLDSRGFLFGPSLAQELGLGCVLIRKRGKLPGPTLWASYSLEYGKAELEIQKDALEPGQRVVVVDDLLATGGTMNAACELLGRLQAEVLECVSLVELTSLKGREKLAPVPFFSLLQYE
notes: Adenine phosphoribosyltransferase, human; also called APRT; source: insect cell/baculovirus, purified, spotted (Invitrogen Protoarray v4.0)
B9: Growth arrest and DNA-damage-inducible, gamma (natural protein, human, UniProt O95257 1-159, looked up)
chain: MTLEEVRGQDTVPESTARMQGAGKALHELLLSAQRQGCLTAGVYESAKVLNVDPDNVTFCVLAAGEEDEGDIALQIHFTLIQAFCCENDIDIVRVGDVQRLAAIVGAGEEAGAPGDLHCILISNPNEDAWKDPALEKLSLFCEESRSVNDWVPSITLPE
notes: Growth arrest and DNA-damage-inducible, gamma, human; also called GADD45G; source: insect cell/baculovirus, purified, spotted (Invitrogen Protoarray v4.0)
B10: Leucine zipper and CTNNBIP1 domain containing (natural protein, human, UniProt Q8WZA0-1 1-190, looked up)
chain: MASRGKTETSKLKQNLEEQLDRLMQQLQDLEECREELDTDEYEETKKETLEQLSEFNDSLKKIMSGNMTLVDELSGMQLAIQAAISQAFKTPEVIRLFAKKQPGQLRTRLAEMDRDLMVGKLERDLYTQQKVEILTALRKLGEKLTADDEAFLSANAGAILSQFEKVSTDLGSGDKILALASFEVEKTKK
notes: Leucine zipper and CTNNBIP1 domain containing, human; also called LZIC; source: insect cell/baculovirus, purified, spotted (Invitrogen Protoarray v4.0)
B11: LIM and cysteine-rich domains 1 (natural protein, human, UniProt Q9NZU5-1 1-365, looked up)
chain: MAKVAKDLNPGVKKMSLGQLQSARGVACLGCKGTCSGFEPHSWRKICKSCKCSQEDHCLTSDLEDDRKIGRLLMDSKYSTLTARVKGGDGIRIYKRNRMIMTNPIATGKDPTFDTITYEWAPPGVTQKLGLQYMELIPKEKQPVTGTEGAFYRRRQLMHQLPIYDQDPSRCRGLLENELKLMEEFVKQYKSEALGVGEVALPGQGGLPKEEGKQQEKPEGAETTAATTNGSLSDPSKEVEYVCELCKGAAPPDSPVVYSDRAGYNKQWHPTCFVCAKCSEPLVDLIYFWKDGAPWCGRHYCESLRPRCSGCDEIIFAEDYQRVEDLAWHRKHFVCEGCEQLLSGRAYIVTKGQLLCPTCSKSKRS
notes: LIM and cysteine-rich domains 1, human; also called LMCD1; source: insect cell/baculovirus, purified, spotted (Invitrogen Protoarray v4.0)

Each binder was assayed against T1, NEMO (NF-κB essential modulator), tag-free, biotinylated (human, UniProt Q9Y6K9 1-419, biotin (in vitro biotinylation kit, biotin:NEMO molar ratio 9:1)) (assay: peptide or protein array; Invitrogen Protoarray v4.0, about 8,400 human proteins spotted on nitrocellulose-coated glass slides; 10 µg biotinylated tag-free NEMO in 120 µl probing buffer (PBS, 0.5 mM DTT, 5 mM MgCl2, 5% glycerol, 0.05% Triton X-100), 4°C, 1.5 h; bound NEMO detected with labelled streptavidin; hits Z-score > 3, hits of the biotin-GST control array subtracted). Details: both partners purified.
T1 construct: NEMO, NF-κB essential modulator, human, 48 kDa; also called biotinylated NEMO; biotin-NEMO; source: E. coli BL21(DE3), purified (glutathione sepharose), GST removed with thrombin, biotinylated in vitro

| Binder | binding result |
| --- | --- |
| B1 | binds |
| B2 | binds |
| B3 | binds |
| B4 | binds |
| B5 | binds |
| B6 | binds |
| B7 | binds |
| B8 | binds |
| B9 | binds |
| B10 | binds |
| B11 | binds |
